Measurements as given in article PMC4522616 (Emerging Microbes & Infections, 2015).

Assays:
[1] = molecular target: gp120 of HIV-1 BaL (clade B) (HIV-1 group M subtype B, isolate BaL …, UniProt Q2MKA8, strain); test: ELISA
[2] = molecular target: gp120 of HIV-1 96ZM651 (clade C) (HIV-1 group M subtype C, isolate 96ZM651, strain); test: ELISA
[3] = molecular target: gp120 of HIV-1 93MW965 (clade C) (HIV-1 group M subtype C, isolate …, strain); test: BLI
[4] = molecular target: gp120 of HIV-1 JR-FL (clade B) (HIV-1); test: BLI
[5] = molecular target: T1, C4 peptide VGKAMYAPPIRGQIR (gp120 residues 430 to 444, HXB2 numbering) (HIV-1); test: crystal structure
T1 chain: VGKAMYAPPIRGQIR

[6] = molecular target: JR-FL Env on pseudovirions (HIV-1 JR-FL (clade B), UniProt Q75760, strain); test: virus capture assay

B1: rabbit monoclonal antibody R53 (antibody, V domains shown)
VH: QSLEESGGGPVKPGGTLTLTCKASGIDFSSFYYMCWVRQAPGKGLEWIACIVTDITGESYYATWAKGRFAISKTSSTTVTLQMTSLTAADTATYFCARGDTYGYGDTVYALNLWGPGTLVTVSS
VL: GPVLTQTPPSASEPVGGTVTIKCQASQAIDEYLGWYQQKPGQRPKLLMYYASTLASGVPSRFKGSGSGTQFTLTISDLECADAATYYCQNYYVGSSTNYAFTFGGGTEVVVK
binding result [1]: binds | binding result [2]: binds | Kd [3]: 3.98 nM | koff [3]: 0.00121 s⁻¹ | kon [3]: 304000 M⁻¹ s⁻¹ | Kd [4]: 1.96 nM | koff [4]: 0.000309 s⁻¹ | kon [4]: 157000 M⁻¹ s⁻¹

B2: R53 antigen-binding fragment (Fab) (Fab, V domains shown)
VH: B1 VH
VL: B1 VL
binding result [5]: binds

B3: rabbit monoclonal antibody R56 (antibody, V domains shown)
VH: QSLEESGGDLVQPGASLTLTCKASGFSFGNNYDMCWVRQAPGKGLEWIGCIETGSSDSAAYATWAKGRFTISKTSSTTVTLQMTSLTAADTATYFCARNFDLWGPGTLVIVSS
VL: QVLTQTPSSVSTAVGSAVTINCQSSQNVYSNNNLAWFQQKPGQPPRLLIYDASKLASGVPSRFKGSGSGTQFTFTISDVQCDDAATFYCLGGYDCSSGDCAAFGGGTEVVVR
binding result [6]: binds
